# Measured values from US20030077226.
# T1: synthetic peptide substrate containing the wild-type APP β-secretase site (SEVKMDAEFR)
# T1 chain: SEVKMDAEFR
# T2: synthetic peptide substrate containing the Swedish KM→NL mutation (SEVNLDAEFR)
# T2 chain: SEVNLDAEFR
# Legend:
# [1] = target: T1, synthetic peptide substrate containing …
# [2] = target: T2, synthetic peptide substrate containing …
Protein,proteolysis of peptide substrate (percent hydrolysis by RP-HPLC) [1],"proteolysis of peptide substrate (percent hydrolysis by RP-HPLC), Swedish peptide against wild type after 6 hours [2]",proteolysis of peptide substrate (RP-HPLC) [2]
Recombinant human Asp2(a) prepared in CHO cells (protein) ETDEEPEEPGRRGSFVEMVDNLRGKSGQGYYVEMTVGSPPQTLNILVDTGSSNFAVGAAPHPFLHRYYQRQLSSTYRDLRKGVYVPYTQGKWEGELGTDLVSIPHGPNVTVRANIAAITESDKFFINGSNWEGILGLAYAEIARPDDSLEPFFDSLVKQTHVPNLFSLHLCGAGFPLNQSEVLASVGGSMIIGGIDHSLYTGSLWYTPIRREWYYEVIIVRVEINGQDLKMDCKEYNYDKSIVDSGTTNLRLPKKVFEAAVKSIKAASSTEKFPDGFWLGEQLVCWQAGTTPWNIFPVISLYLMGEVTNQSFRITILPQQYLRPVEDVATSQDDCYKFAISQSSTGTVMGAVIMEGFYVVFDRARKRIGFAVSACHVHDEFRTAAVEGPFVTLDMEDCGYNIPQTDESTLMTIAYVMAAICALFMLPLCLMVCQWRCLRCLRQQHDDFADDISLLK,"Maximal proteolysis was seen with the Swedigh β-secretase peptide, which, after 6 hours, was about 10-fold higher than wild type APP",about 10-fold higher than wild type APP,–
Hu-Asp2(b) expressed in CHO cells (protein) TQHGIRLPLRSGLGGAPLGLRLPRETDEEPEEPGRRGSFVEMVDNLRGKSGQGYYVEMTVGSPPQTLNILVDTGSSNFAVGAAPHPFLHRYYQRQLSSTYRDLRKGVYVPYTQGKWEGELGTDLVSIPHGPNVTVRANIAAITESDKFFINGSNWEGILGLAYAEIARLCGAGFPLNQSEVLASVGGSMIIGGIDHSLYTGSLWYTPIRREWYYEVIIVRVEINGQDLKMDCKEYNYDKSIVDSGTTNLRLPKKVFEAAVKSIKAASSTEKFPDGFWLGEQLVCWQAGTTPWNIFPVISLYLMGEVTNQSFRITILPQQYLRPVEDVATSQDDCYKFAISQSSTGTVMGAVIMEGFYVVFDRARKRIGFAVSACHVHDEFRTAAVEGPFVTLDMEDCGYNIPQTDESTLMTIAYVMAAICALFMLPLCLMVCQWRCLRCLRQQHDDFADDISLLK,–,–,also cleaves the Swedish β-secretase peptide in proteolysis assays using identical assay conditions
